Assay results: US20090162869A1 (RIKEN, published 2009)

Target: T1, DAP12, endogenous in mouse cells (splenic cells, FL-PDC) (mouse, UniProt O54885 22-114, phosphorylated in CpG-A-stimulated FL-PDC (sites not given))
T1 construct: whole, on cells
Experiment: association in CpG-A-stimulated FL-PDC (FIG. 20); method not described

T1 sequence (O54885 22-114): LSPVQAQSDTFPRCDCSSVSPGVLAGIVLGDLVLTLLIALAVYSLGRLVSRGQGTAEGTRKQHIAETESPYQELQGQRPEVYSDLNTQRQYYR

B1: membrane molecule (A) of the present invention (PDC-TREM), mouse, full length (receptor)
chain: QNPELLRTQEGETVSVTCWYDSLYHSSEKIWCKQIDNLCYPFVSKSAEKPRFLIQQSSRFNFFTVTMTKLKMSDSGIYHCGIVANNTSVYLRNIHLVVSKGSSVVSTPDIIPATRLTKLPTLITTKHSPSDTTTTRSLPQPTTVVSSPDPRVIIINGTDADRGFVSSVTIPVVCGLLSKTLVFTVLFIVTQKSFGRQAMKAHNSNS
notes: also called the present membrane molecule
binding result: binds
